# From patent US20140018297A1 (Novo Nordisk, published 2014)
# T1: Fluorescent labelled FVIII (Oregon green-FVIII) (UniProt P00451 20-2351, limits assumed, Oregon green label)
# T1 sequence (looked up): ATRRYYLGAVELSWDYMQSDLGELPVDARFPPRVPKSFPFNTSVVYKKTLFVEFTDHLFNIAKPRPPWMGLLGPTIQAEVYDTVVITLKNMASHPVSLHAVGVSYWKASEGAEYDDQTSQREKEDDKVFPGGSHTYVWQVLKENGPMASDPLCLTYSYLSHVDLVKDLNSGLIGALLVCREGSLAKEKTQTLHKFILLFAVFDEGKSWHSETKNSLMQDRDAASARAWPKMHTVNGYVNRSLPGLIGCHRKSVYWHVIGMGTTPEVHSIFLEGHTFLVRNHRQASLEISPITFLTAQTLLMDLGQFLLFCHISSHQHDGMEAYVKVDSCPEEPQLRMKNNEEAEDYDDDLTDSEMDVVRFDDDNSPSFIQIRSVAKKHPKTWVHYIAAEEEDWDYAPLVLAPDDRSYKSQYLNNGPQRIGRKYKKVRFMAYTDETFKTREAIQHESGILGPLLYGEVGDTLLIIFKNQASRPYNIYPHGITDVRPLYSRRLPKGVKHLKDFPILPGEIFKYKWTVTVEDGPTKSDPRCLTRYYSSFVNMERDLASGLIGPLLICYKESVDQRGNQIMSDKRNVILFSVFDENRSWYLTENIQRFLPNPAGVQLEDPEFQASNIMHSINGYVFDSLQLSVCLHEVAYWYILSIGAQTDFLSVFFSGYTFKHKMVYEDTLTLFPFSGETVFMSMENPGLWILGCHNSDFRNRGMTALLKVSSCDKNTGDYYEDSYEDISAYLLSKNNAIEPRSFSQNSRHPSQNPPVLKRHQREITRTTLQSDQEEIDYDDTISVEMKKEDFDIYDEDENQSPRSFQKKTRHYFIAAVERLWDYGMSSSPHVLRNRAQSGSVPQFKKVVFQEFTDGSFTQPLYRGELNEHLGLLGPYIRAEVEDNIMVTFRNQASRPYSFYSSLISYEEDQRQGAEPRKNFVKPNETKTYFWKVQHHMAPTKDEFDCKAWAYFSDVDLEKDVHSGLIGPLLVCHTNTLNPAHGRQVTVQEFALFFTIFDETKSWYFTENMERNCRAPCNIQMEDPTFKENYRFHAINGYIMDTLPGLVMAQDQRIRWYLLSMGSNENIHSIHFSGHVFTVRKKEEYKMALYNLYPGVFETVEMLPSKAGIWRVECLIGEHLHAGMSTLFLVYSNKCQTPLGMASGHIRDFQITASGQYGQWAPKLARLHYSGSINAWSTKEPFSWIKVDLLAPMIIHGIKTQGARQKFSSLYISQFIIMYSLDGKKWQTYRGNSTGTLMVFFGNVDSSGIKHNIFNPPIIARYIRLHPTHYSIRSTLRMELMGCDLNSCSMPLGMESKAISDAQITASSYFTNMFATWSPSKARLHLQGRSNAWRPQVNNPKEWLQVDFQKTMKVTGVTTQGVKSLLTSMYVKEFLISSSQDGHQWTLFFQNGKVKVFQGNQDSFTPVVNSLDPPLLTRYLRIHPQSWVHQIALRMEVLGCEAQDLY
# T2: FVIII (as used in the competition ELISA of Example 21; form not stated) (UniProt P00451 20-2351, limits assumed)
# T2 sequence (looked up): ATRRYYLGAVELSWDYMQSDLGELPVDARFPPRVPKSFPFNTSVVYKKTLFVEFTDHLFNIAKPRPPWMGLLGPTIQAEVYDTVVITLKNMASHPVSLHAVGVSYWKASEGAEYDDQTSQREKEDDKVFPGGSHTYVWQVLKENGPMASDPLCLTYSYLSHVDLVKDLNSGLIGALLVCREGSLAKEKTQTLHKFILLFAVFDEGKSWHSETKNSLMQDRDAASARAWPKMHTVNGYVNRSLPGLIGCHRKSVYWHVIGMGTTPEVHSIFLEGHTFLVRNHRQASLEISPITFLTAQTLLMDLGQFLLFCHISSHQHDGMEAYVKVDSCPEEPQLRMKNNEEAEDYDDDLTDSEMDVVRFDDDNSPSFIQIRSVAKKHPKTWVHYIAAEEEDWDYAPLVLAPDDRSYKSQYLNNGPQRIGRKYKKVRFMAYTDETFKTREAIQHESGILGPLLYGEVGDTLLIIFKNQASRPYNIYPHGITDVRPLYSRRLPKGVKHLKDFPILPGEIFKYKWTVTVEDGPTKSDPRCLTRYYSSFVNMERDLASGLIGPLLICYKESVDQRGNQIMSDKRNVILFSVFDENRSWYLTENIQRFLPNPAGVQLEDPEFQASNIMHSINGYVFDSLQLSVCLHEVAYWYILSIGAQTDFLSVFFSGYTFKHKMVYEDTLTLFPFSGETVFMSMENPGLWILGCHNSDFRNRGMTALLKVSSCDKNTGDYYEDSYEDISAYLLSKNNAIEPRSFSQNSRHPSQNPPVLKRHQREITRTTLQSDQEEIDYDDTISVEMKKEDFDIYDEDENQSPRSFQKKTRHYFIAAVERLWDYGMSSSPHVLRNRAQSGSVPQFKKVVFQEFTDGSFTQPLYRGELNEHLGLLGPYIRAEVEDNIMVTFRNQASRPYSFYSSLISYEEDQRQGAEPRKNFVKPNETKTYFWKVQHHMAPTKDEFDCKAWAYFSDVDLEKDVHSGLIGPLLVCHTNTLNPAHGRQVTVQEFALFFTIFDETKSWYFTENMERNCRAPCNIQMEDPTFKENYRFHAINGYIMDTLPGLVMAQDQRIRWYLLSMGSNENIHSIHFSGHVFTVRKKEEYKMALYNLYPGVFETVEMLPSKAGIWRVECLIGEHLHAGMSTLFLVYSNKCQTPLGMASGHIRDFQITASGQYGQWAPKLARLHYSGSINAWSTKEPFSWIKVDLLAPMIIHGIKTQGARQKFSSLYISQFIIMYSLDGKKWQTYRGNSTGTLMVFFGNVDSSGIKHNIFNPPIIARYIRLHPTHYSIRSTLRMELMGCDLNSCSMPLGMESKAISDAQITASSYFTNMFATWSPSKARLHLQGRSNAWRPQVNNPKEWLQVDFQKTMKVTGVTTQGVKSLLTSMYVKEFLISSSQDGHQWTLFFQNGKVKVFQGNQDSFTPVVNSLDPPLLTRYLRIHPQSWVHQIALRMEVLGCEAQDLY
# T3: FVIII (N8, turoctocog alfa), B domain truncated FVIII (human, UniProt P00451 20-2351)
# T3 construct: also called F8; F8-500
# T3 sequence: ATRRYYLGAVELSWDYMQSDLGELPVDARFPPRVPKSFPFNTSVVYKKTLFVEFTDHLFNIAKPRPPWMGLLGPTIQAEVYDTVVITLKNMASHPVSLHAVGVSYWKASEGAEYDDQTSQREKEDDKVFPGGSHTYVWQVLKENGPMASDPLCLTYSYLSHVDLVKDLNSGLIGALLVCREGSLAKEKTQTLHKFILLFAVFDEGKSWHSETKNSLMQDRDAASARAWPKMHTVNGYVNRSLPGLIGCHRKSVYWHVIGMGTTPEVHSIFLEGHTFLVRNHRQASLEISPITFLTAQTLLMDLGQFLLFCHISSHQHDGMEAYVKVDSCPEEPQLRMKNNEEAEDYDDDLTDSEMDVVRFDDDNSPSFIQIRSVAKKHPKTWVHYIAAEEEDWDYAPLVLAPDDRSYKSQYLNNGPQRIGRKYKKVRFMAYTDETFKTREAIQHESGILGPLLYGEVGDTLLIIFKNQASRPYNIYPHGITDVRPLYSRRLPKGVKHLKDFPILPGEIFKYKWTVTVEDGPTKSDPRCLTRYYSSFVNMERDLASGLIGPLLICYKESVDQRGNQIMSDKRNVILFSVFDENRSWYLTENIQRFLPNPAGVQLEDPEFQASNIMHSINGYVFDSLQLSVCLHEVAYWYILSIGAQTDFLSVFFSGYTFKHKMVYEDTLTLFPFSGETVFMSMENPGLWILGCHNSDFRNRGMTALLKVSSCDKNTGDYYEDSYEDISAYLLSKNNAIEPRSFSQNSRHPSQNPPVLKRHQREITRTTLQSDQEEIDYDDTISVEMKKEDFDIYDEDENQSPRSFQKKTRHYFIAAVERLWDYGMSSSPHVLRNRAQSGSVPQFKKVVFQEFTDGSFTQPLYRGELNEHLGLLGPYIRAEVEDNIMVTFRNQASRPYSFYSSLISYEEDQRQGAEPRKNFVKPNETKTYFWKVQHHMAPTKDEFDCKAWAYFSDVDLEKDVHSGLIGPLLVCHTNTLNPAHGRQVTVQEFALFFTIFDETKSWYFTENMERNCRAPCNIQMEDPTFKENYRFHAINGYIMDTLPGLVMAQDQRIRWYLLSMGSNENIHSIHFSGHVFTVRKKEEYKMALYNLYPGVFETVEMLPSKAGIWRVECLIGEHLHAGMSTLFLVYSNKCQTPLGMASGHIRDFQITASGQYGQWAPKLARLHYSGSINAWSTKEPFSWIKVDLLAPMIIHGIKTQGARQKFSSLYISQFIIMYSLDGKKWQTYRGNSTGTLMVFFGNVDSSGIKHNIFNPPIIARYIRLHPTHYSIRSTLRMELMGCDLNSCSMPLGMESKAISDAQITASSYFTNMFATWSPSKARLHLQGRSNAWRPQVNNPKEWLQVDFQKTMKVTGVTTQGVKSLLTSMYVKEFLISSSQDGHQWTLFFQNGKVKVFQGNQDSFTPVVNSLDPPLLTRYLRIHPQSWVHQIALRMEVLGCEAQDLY
# How the values were obtained:
# [1] = target: T1, Fluorescent labelled FVIII (Oregon …); assay: cell-based or functional assay
# [2] = target: T2, FVIII (as used in the competition ELISA …); assay: competition ELISA; competitor coated human VWF; FVIII 1 nM pre-incubated with the fragment
# Experimental: In order to investigate the binding of the different VWF fragments to FVIII the following method is used. Briefly, human VWF is coated in a microtiterplate and incubated overnight at 4° C. After blocking, a solution with pre-incubated FVIII (1 nM) and VWF/VWF-fragment is added to the plate, followed by detection with biotinylated anti FVIII antibody and streptavidin-peroxidase S-POD (1:20000). The absorbance is measured at 450/620 nm.
# [3] = target: T3, FVIII (N8, turoctocog alfa), B domain …; assay: SEC-UV (280 nm), Waters Biosuite 4.6x300 mm, 0.3 ml/min, 155 mM NaCl, 10 mM calcium acetate, 10% isopropanol, 25 °C; FVIII 10 µM, fragment 20 µM, 1:2 mixture
# Experimental: Size-exclusion chromatography was performed on a Waters Biosuite 4.6×300 mm column using a flow rate of 0.3 ml/min and a running buffer of 155 mM NaCl, 10 mM Calciumacetat, 10% Isopropanol at 25° C. The absorbance of the effluent was monitored by a UV detector at 280 nm. SEC-UV characterization were performed of FVIII, TIL′/E′/D3/A1 III, TIL′/E′/D3 II, and 1:2 complexes of FVIII—TIL′/E′/D3/A1 III and of FVIII—TIL′/E′/D3 II. Samples of FVIII 10 μM, TIL′/E′/D3/A1 III 20 μM, TIL′/E′/D3 II 20 μM, and in complex were prepared and 15 μL were loaded on to the column.
"IC50 (nM), FVIII uptake in dendritic cells [1] [nM]",IC50 [2] [nM],binding result [3],Binder
31,12,,"VWF(764-1250)-C1099/1142S-ALA-HPC4 monomer (other, also called TIL′/E′/D3 I) SLSCRPPMVKLVCPADNLRAEGLECTKTCQNYDLECMSMGCVSGCLCPPGMVRHENRCVALERCPCFHQGKEYAPGETVKIGCNTCVCQDRKWNCTDHVCDATCSTIGMAHYLTFDGLKYLFPGECQYVLVQDYCGSNPGTFRILVGNKGCSHPSVKCKKRVTILVEGGEIELFDGEVNVKRPMKDETHFEVVESGRYIILLLGKALSVVWDRHLSISVVLKQTYQEKVCGLCGNFDGIQNNDLTSSNLQVEEDPVDFGNSWKVSSQCADTRKVPLDSSPATCHNNIMKQTMVDSSCRILTSDVFQDCNKLVDPEPYLDVCIYDTCSCESIGDCASFCDTIAAYAHVCAQHGKVVTWRTATLCPQSCEERNLRENGYESEWRYNSCAPACQVTCQHPEPLACPVQCVEGCHAHCPPGKILDELLQTCVDPEDCPVCEVAGRRFASGKKVTLNPSDPEHCQICHCDVVNLTCEACQEPGGLVVPPTDAALAEDQVDPRLIDGK"
,,binds,"VWF(764-1261)-C1099/1142S-ALA-HPC4 monomer (other, also called 2309; TIL′/E′/D3 II) SLSCRPPMVKLVCPADNLRAEGLECTKTCQNYDLECMSMGCVSGCLCPPGMVRHENRCVALERCPCFHQGKEYAPGETVKIGCNTCVCQDRKWNCTDHVCDATCSTIGMAHYLTFDGLKYLFPGECQYVLVQDYCGSNPGTFRILVGNKGCSHPSVKCKKRVTILVEGGEIELFDGEVNVKRPMKDETHFEVVESGRYIILLLGKALSVVWDRHLSISVVLKQTYQEKVCGLCGNFDGIQNNDLTSSNLQVEEDPVDFGNSWKVSSQCADTRKVPLDSSPATCHNNIMKQTMVDSSCRILTSDVFQDCNKLVDPEPYLDVCIYDTCSCESIGDCASFCDTIAAYAHVCAQHGKVVTWRTATLCPQSCEERNLRENGYESEWRYNSCAPACQVTCQHPEPLACPVQCVEGCHAHCPPGKILDELLQTCVDPEDCPVCEVAGRRFASGKKVTLNPSDPEHCQICHCDVVNLTCEACQEPGGLVVPPTDAPVSPTTLYVEDALAEDQVDPRLIDGK"
